B1: Ataxin-1 (Homo sapiens), P54253 (parent)
chain: MKSNQERSNECLPPKKREIPATSRSSEEKAPTLPSDNHRVEGTAWLPGNPGGRGHGGGRHGPAGTSVELGLQQGIGLHKALSTGLDYSPPSAPRSVPVATTLPAAYATPQPGTPVSPVQYAHLPHTFQFIGSSQYSGTYASFIPSQLIPPTANPVTSAVASAAGATTPSQRSQLEAYSTLLANMGSLSQTPGHKAEQQQQQQQQQQQQHQHQQQQQQQQQQQQQQHLSRAPGLITPGSPPPAQQNQYVHISSSPQNTGRTASPPAIPVHLHPHQTMIPHTLTLGPPSQVVMQYADSGSHFVPREATKKAESSRLQQAIQAKEVLNGEMEKSRRYGAPSSADLGLGKAGGKSVPHPYESRHVVVHPSPSDYSSRDPSGVRASVMVLPNSNTPAADLEVQQATHREASPSTLNDKSGLHLGKPGHRSYALSPHTVIQTTHSASEPLPVGLPATAFYAGTQPPVIGYLSGQQQAITYAGSLPQHLVIPGTQPLLIPVGSTDMEASGAAPAIVTSSPQFAAVPHTFVTTALPKSENFNPEALVTQAAYPAMVQAQIHLPVVQSVASPAAAPPTLPPYFMKGSIIQLANGELKKVEDLKTEDFIQSAEISNDLKIDSSTVERIEDSHSPGVAVIQFAVGEHRAQVSVEVLVEYPFFVFGQGWSSCCPERTSQLFDLPCSKLSVGDVCISLTLKNLKNGSVKKGQPVDPASVLLKHSKADGLAGSRHRYAEQENGINQGSAQMLSENGELKFPEKMGLPAAPFLTKIEPSKPAATRKRRWSAPESRKLEKSEDEPPLTLPKPSLIPQEVKICIEGRSNVGK
partner: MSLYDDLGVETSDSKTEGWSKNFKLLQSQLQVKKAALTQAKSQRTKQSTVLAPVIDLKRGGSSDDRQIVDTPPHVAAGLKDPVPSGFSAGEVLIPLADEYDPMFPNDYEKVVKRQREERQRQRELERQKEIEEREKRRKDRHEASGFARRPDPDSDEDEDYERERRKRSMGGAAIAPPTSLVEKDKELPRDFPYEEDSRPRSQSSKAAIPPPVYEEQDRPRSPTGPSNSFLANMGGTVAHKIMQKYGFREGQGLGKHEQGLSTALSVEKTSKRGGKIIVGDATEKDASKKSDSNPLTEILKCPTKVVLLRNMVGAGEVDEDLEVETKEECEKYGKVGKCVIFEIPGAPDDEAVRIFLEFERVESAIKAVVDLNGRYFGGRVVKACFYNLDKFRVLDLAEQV

Variants of: B1
Settings: with spf45_human RBM17, Q96I25

Row | effect of a mutation on the interaction | Variant
1 | disrupting interaction strength | S775A

Source: IntAct's records for PubMed 18337722
